# Test results: EP2975059A1
# Biological target: Human PCSK9 form a' (human)
# Test: SPR ProteOn XPR36, antibody captured on anti-human IgG, PCSK9 variant as analyte, 25 C, 1:1 model
substance,measurement,value
Evolocumab (antibody),Kd,0.185 nM
same,koff,2.29e-05 s⁻¹
same,kon,124000 M⁻¹ s⁻¹
